Assay results from the supplement of paper PMC10567573.

B1: OAS1 (parent)
chain: LTVYAWERGSMKTHFNTAQGFRTV

Variants of: B1
Test: protein stability index of a GFP-peptide fusion (GPS, HEK-293T) (PSI 1-6); higher = more stable
Conditions: c terminus: a fixed tail appended
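Also: lentivirally expressed fusions sorted by FACS into six bins by GFP to DsRed ratio, PSI derived from sequencing read proportions per bin multiplied by bin number.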

Protein stability index: each site, then its substitutions
A5: V 2.34 | Y 3.25
R8: S 2.55 | Q 2.56 | F 2.26 | H 2.13 | W 2.69 | C 1.85 | K 1.53 | G 2.33 | A 2.38 | M 2.73 | E 2.4 | P 4.46 | D 2.89 | L 3.07 | T 3.1 | I 2.15 | N 2.65 | V 2.77 | Y 3.38
T13: Q 2.06 | K 1.51 | Y 3.56 | E 2.06 | H 1.83 | F 3.1 | V 2.68 | C 1.13 | R 1.64 | G 2.33 | D 2.74 | M 3.37 | W 3.26 | L 2.99 | A 2.88 | P 2.06 | I 2.75 | N 2.25 | S 2.01
E7: T 3.32 | M 3.48 | Y 1.92 | L 3.71 | S 2.76 | F 2.85 | A 3.15 | W 1.98 | V 3.45 | R 2.05 | D 2.14 | P 2.46 | Q 3.28 | I 2.63 | C 3.64 | N 1.99 | H 2.41 | K 2.28 | G 2.18
W6: F 2.89 | D 1.87 | K 1.53 | T 2.45 | H 2.2 | Q 1.66 | C 1.61 | L 2.63 | G 1.73 | R 1.44 | V 2.29 | N 2.06 | E 2.23 | I 2.41 | M 3.17 | S 1.59 | Y 1.9 | A 1.86 | P 1.69
S10: G 2.28 | I 1.91 | Q 1.99 | M 2.46 | V 2.62 | H 2.71 | F 2.93 | Y 3.69 | E 3.28 | L 2 | R 2.08 | P 1.54 | A 2.05 | N 2.53 | C 2.82 | D 1.75
K12: I 2.98 | W 2.8 | C 3.27 | M 3.75 | Y 2.49 | Q 2.43 | G 1.54 | D 2.29 | S 4.72 | R 1.51 | E 2.22 | V 2.45 | A 3.08 | T 2.98 | P 5.14 | H 2.87 | F 1.8 | L 2.72 | N 2.66
H14: F 2.8 | V 3.57 | P 2.56 | T 2.86 | Y 2.75 | I 2.29 | Q 1.75 | M 3.15 | W 2.76 | E 2.42 | L 2.88 | G 1.69 | K 2.35 | D 2.33 | N 1.74 | S 2.44 | R 3.04
F15: C 1.96 | A 2.35
G9: D 2.6 | P 3.81 | W 2.69 | E 2.7 | K 1.8 | Y 2.93 | N 2.48 | T 2.55 | H 1.61 | R 2.02 | C 3.73 | I 1.86 | Q 1.87 | S 2.49 | L 2.91 | F 3.19 | M 2.85
M11: C 3.65 | F 2.49 | S 2.19 | R 2.16 | N 2.06 | H 2.31 | D 2.21 | Q 2.14 | T 2.09 | L 1.51 | V 2.09 | E 2.27 | G 3.37 | A 1.75 | P 1.85 | Y 3.28 | K 2.38 | I 1.97
